Measurements: patent publication US20260167714A1 (COHERUS BIOSCIENCES, published 2026)

B1: L180S4 (antibody, IgG1, V domains shown)
VH: EVHLQQSGPELVKPGASVKISCKASGYSFIGYFMNWMKQSHGKSLEWIGRINPYNGDIFYNQKFKGKATLTVDKSSTTAHMDLLSLTSEDFAVYYCARGITVAAGSFDVWGTGTTVTVSS
VL: DIVLTQSPASLAVSLGQRATISCRASESVDNYGNTFMHWYQQKPGQPPKLLIYRASNLESGIPARFSGSGSKTDFTLTINPVEADDVATYYCQQSSDHPLTFGAGTKLELS
notes: also called Murine 180; mouse anti-human ILT4 antibody L180S4
B2: Chimeric 180 (antibody, V domains shown)
VH: B1 VH
VL: B1 VL
notes: Chimeric form of L180S4
B3: Chimeric 156 (antibody, V domains shown)
VH: QVQLKQSGAELVRPGASVKLSCRASGYTFTDYYMNWVKQRPGQGLEWIARIYPGVYRTHYNEKFKDKATLTAEKSSSTAYMELSSLTSEDSAVYFCARSGYYGGTYEEDAMDYWGQGTSVTVSS
VL: DIQMTQSPASLSVSVGETVTITCRASENIYSNLAWYQQKQGKSPQLLVYAATSLADGVPSRFRGSGSGTQYSLKISSLQSEDFGNYYCQNFWDTPYTFGGGTKLEIK
notes: Chimeric form of L156S3
B4: L77S2 (antibody, IgG1, V domains shown)
VH: DVQLQQSGPELVKPGNSVKISCKAAGYSFTGYSVNWVKERHGKSLEWIGRINPYNGDIFNNQKFKGKATLTVDKSSSTAHMELRSLTSEDSAVYYCARGTTVGGAWFAYWGQGTLVTVSA
VL: VIVLTQSPASLAVSLGQRAAISCRASESVDSYGYSFLHWYQQKPGQPPKLLIYLASNLESGIPARFSGSGSGTDFTLTINPVEADDVATYYCQQSNEDLMYTFGGGTKLEIK
notes: also called Murine 77; mouse anti-human ILT4 antibody L77S2
B5: Chimeric 77 (antibody, V domains shown)
VH: B4 VH
VL: B4 VL
notes: Chimeric form of L77S2
B6: Chimeric 45 (antibody, V domains shown)
VH: EVQLQQSGPELVKPGASVKISCKASGYTFTDYYMNWVKQSHGKSLEWIGDINPNNGGTSYNQKFKGKATLTVDKSSSTAYMELRSLTSEDSAVYYCARGGAELTGTYWYFDVWGTGTTVTVSS
VL: DIQMTQSPASLSISVGETVTITCRASENIYSNLAWYQQKQGKSPQVLVYGATNLADGVPSRFSGSGSGTQYSLKIKSLQSEDFGSYYCQHFWDSPFTFGSGTKLEIK
notes: Chimeric form of L45S4, captured on anti-human Fc

target: T1, recombinant human ILT4 (LILRB2) (human, UniProt Q8N423 22-460); test: SPR, Biacore T200, medium resolution; koff held at its limit of 4.27e-5 s^-1
T1 construct: Bought protein (Acro Biosystems or R&D Systems); also called ILTR4
Procedure: (§1) Label-free SPR analysis on a Biacore T200 instrument was utilized to measure antibody affinity to ILT4. CM4 sensor chips from Cytiva Inc. were utilized for all medium resolution analyses. Either anti-mouse Fc specific or anti-human Fc specific capture surfaces were prepared using standard amine coupling chemistry. Mouse, Chimera or Humanized mAbs were captured to their respective surfaces and ILT4 was injected across the surfaces from 101 nM to 0.79 nM in a 2-fold serial dilution series at a flow rate of 100 μL/min. The association phase was followed for 90 sec. while the dissociation phase was followed for 1200 sec. due to the medium resolution analysis implemented here. The sensorgrams were double-referenced and fit globally to a 1:1 interaction model with a term included for mass transport, and the equilibrium dissociation constant was calculated as KD=koff/kₒₙ. […] All kinetic experiments were performed at 25° C. in a buffer consisting of Hepes-buffered saline, pH 7.4, with 0.05% polysorbate 20 (HBS-P+) and 100 μg/ml Bovine Serum Albumin (BSA).

T1 sequence (Q8N423 other isoform, or with tags, fused parts or gaps limits assumed): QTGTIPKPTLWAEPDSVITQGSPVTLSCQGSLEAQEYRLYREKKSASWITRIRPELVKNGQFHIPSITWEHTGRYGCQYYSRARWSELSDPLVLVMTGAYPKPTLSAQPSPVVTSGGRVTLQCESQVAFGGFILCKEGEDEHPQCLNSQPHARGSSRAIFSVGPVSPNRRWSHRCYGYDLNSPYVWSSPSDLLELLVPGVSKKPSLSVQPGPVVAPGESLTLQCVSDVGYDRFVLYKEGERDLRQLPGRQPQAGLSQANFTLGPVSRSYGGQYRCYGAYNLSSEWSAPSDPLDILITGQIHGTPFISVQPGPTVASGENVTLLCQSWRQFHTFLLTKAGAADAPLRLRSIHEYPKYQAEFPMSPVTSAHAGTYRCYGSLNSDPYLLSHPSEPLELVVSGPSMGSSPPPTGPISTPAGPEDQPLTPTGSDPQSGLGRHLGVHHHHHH

Kd	koff	Binder
≤ 0.099 nM	≤ 4.27e-05 s⁻¹	B1
≤ 0.049 nM	≤ 4.27e-05 s⁻¹	B2
≤ 0.114 nM	≤ 4.27e-05 s⁻¹	B3
≤ 0.111 nM	≤ 4.27e-05 s⁻¹	B4
≤ 0.059 nM	≤ 4.27e-05 s⁻¹	B5

target: T2, human ILT4 expressed on cells (human, UniProt Q8N423 22-597); test: flow cytometry, blockade of PE-HLA-G tetramer (5 µg/ml) binding to CHO-S/ILT4 cells, experiment 2
T2 construct: whole, on cells; also called CHO-S/ILT4 cells; ILT4-CHO cells
Procedure: (§2) In the second blocking experiment, the primary antibody dilutions were made by diluting antibody to 15 μg/ml in FACS buffer. Three independent sets of eleven 2.5-fold serial dilutions were then made in FACS buffer from 15 μg/ml to 0.002 μg/ml. Each dilution set was handled independently, and 50 μl from each was added to cells in duplicate. Control wells received FACS buffer with no antibody. Wells were mixed and incubated for 30 minutes at 4 degrees C. Cells were washed twice in FACS buffer.
(§3) In both blocking experiments, phycoerythrin (PE)-conjugated HLA-G tetramer was diluted in FACS buffer to 5 μg/ml and 100 μl per well was added to cells. Cells were incubated at 4 degrees C. for 30 minutes, washed twice in FACS buffer, and resuspended in 250 μl FACS buffer with 0.1 μg/ml propidium iodide.
(§4) Cells were acquired on an Attune flow cytometer, with 5000 propidium iodide-negative cells collected per sample, and MFI was recorded. Relative blocking activity was calculated with the following formula: 100−(Sample MFI−Background MFI)/(Top MFI−Background MFI)*100. Prism software (Graphpad) was used to plot MFI and relative blocking activity for each sample. The blocking potency for each antibody, represented as IC₅₀, was calculated with Prism software.

T2 sequence (Q8N423 22-597): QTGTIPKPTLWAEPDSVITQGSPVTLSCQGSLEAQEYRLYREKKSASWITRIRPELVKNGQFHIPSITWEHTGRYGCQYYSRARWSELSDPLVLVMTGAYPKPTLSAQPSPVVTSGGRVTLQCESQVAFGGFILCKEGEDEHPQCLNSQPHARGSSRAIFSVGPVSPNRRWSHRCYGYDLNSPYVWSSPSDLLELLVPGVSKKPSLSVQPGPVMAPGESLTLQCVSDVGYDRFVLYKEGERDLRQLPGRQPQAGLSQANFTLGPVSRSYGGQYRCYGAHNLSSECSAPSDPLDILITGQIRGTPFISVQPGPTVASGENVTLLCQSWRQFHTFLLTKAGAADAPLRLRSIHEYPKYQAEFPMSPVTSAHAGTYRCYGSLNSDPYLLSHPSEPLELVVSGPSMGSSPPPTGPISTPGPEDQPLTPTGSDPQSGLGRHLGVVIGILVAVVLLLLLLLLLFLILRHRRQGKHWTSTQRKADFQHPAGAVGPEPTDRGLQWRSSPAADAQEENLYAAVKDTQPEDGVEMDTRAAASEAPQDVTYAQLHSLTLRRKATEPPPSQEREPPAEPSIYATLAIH

IC50	Binder
0.095 µg/mL	B1
0.103 µg/mL	B4

target: T2, human ILT4 expressed on cells; test: cell-based or functional assay

IL-6 secretion by LPS-stimulated M2 macrophages (MSD), fold over control	Binder
2 fold	B1
2 fold	B4

target: T2, human ILT4 expressed on cells; test: flow cytometry blocking assay: ILT4-expressing CHO cells preincubated with antibody, then PE-HLA-G; HLA-G binding MFI falls from about 105000 (no antibody) to near 0
Procedure: as §2, §3, §4

IC50	Binder
0.064 µg/mL	B1
0.076 µg/mL	B4

target: T1, recombinant human ILT4 (LILRB2); test: SPR, Biacore T200, mAb captured on anti-Fc, ILT4 injected, medium resolution, 25 C
Procedure: as §1

Kd	koff	kon	Binder
0.223 nM	0.000109 s⁻¹	489000 M⁻¹ s⁻¹	B6
		431000 M⁻¹ s⁻¹	B1
		874000 M⁻¹ s⁻¹	B2
		373000 M⁻¹ s⁻¹	B3
		387000 M⁻¹ s⁻¹	B4
		728000 M⁻¹ s⁻¹	B5
